The target of this experiment is T1, Cdc34A^FL, full length Cdc34A (residues 1-236) (human, UniProt P49427 1-236).
T1 sequence: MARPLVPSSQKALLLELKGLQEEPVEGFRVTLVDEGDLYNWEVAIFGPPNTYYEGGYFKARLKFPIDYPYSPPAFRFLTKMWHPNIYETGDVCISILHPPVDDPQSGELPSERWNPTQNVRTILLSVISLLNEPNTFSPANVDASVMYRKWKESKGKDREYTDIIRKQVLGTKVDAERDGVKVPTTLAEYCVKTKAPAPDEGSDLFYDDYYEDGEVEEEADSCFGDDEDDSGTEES
The experiment is described as follows: NMR titration.

These results are taken from paper PMC3905752 (Nature chemical biology, 2013).

B1: Rbx1^12-108-SSQS, Rbx1 fragment that contains the RING domain (residues 12-108) (domain or fragment)
chain: not shown
Consider B1, for which the binding result is reported as “binds”.
